Experimental data from patent US20130203609A1 (BOARD OF TRUSTEES OF NORTHERN ILLINOIS UNIVERSITY, published 2013).
Positions count from the first letter of the chain named.

Legend:
[1] = target: T1, bovine pancreatic RNase A (bovine, UniProt P61823 27-150); assay: competitive phage ELISA without metals: VHH phage, serially diluted soluble RNase A (the varied competitor), RNase A-coated wells [panel A]
T1 construct: mature; Bought purified protein; The residue numbers K61 and T70, and the missing residues 16-22, fit the mature numbering; It was coated on plates in the ELISAs and biotinylated for the phage selections
T1 sequence (looked up): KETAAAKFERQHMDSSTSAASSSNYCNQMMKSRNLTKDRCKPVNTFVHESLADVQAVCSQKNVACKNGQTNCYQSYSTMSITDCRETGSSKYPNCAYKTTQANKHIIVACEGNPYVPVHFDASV
Protocol: (§1) Competitive Phage ELISA: Competitive phage ELISA's were performed as described by DeLano and Cunningham (DeLano and Cunningham 2004). Briefly, the concentration of phage needed to produce a 60% saturation signal was determined by running a phage ELISA of serially diluted phage stocks. This fixed amount of phage was then added to serially diluted RNase A and incubated for one hour at room temperature. The well contents of that plate were then transferred to a washed and blocked RNase A coated Maxisorp microtiter plate and incubated 15 minutes at room temperature. The plates were then treated as described above to determine the […] absorbance. The IC50 values were then determined using Origin Labs using the following relationship: […]

[2] = target: T1, bovine pancreatic RNase A; assay: competitive phage ELISA with 1 mM metals: VHH phage, serially diluted soluble RNase A (the varied competitor), RNase A-coated wells [panel A]
Protocol: as §1

[3] = target: T1, bovine pancreatic RNase A; assay: ITC, 25 C; no nickel
Protocol: (§2) The binding parameters (K, ΔH°, ΔS°, and n) were determined using the single site binding model using the ITC add-in in Origin version 7 (MicroCal LLC). All titrations indicated a 1:1 interaction with observed stoichiometries equal to 1.0 (within 5%).
(§3) ITC experiments were performed using a MicroCal VP-ITC (MicroCal, LLC, Northampton, Mass.). All experiments were performed at 25° C. Proteins were dialyzed against the desired experimental buffer, which included PBS (20 mM NaPhosphate, 150 mM NaCl pH 7.4), TBS (20 mM Tris-HCl, 150 mM NaCl pH 7.4) and TBS-E (20 mM Tris, 150 mM NaCl, 1 mM EDTA, pH 7.4). For direct titration of NiCl₂ into the VHHmetal variant, concentrations were 2 mM and 200 μM for NiCl₂ and VHH, respectively. Based on the observed binding constant, this corresponds to a “cvalue” of 6.7, which is within the commonly acceptable range for the accurate determination of binding thermodynamics (Tellinghuisen, 2008; Wiseman et al. 1989). For competitive titrations, nickel was included in TBS without EDTA at concentrations ranging from 0-10 mM. Competitive VHH/RNase A titration experiments with a “c” value greater than 10 included protein concentrations ranging from 30 μM to 205 μM. Conditions included a 10-fold higher concentration of titrant (VHH). […] These experiments included using a 100-fold higher concentration of titrant (RNase A) relative to VHH. RNase A concentrations were between 150 μM and 800 μM. Extinction coefficients were determined using values determined by the methods described by Pace, et. al. (1995). […] For nickel/VHH titrations, the titrant nickel was dissolved in the appropriate dialysis buffer at a 10× concentration of the VHH. Experiments typically included 27, 10 μL injections with a 240 second delay between each injection. Dilution titrations indicated the absence of significant heats of dilution, consequently, no background dilution heat subtractions were necessary. The binding parameters (K, ΔH°, ΔS°, and n) were determined using the single site binding model using the ITC add-in in Origin version 7 (MicroCal LLC).

[4] = target: T1, bovine pancreatic RNase A; assay: ITC, 25 C; RNase A binding with 1 mM nickel (competitive)
Protocol: as §2, §3

[5] = target: T1, bovine pancreatic RNase A; assay: ITC, 25 C; RNase A binding with 1 µM nickel (competitive)
Protocol: as §2, §3

[6] = target: T1, bovine pancreatic RNase A; assay: ITC, 25 C, pH 7.4; no nickel
Protocol: as §2, §3

[7] = target: T1, bovine pancreatic RNase A; assay: ITC, 25 C; RNase A binding with 10 mM nickel (competitive)
Protocol: as §2, §3

[8] = target: T1, bovine pancreatic RNase A; assay: ITC, 25 C; RNase A binding with 10 µM nickel (competitive)
Protocol: as §2, §3

[9] = target: T1, bovine pancreatic RNase A; assay: competitive phage ELISA, soluble RNase A against coated RNase A, with and without 1 mM Zn2+/Co2+/Ni2+
[10] = target: T1, bovine pancreatic RNase A; assay: ITC, 25 C, no metal
Protocol: ITC experiments were performed using a MicroCal VP-ITC (MicroCal, LLC, Northampton, Mass.). All experiments were performed at 25° C. Proteins were dialyzed against the desired experimental buffer, which included PBS (20 mM NaPhosphate, 150 mM NaCl pH 7.4), TBS (20 mM Tris-HCl, 150 mM NaCl pH 7.4) and TBS-E (20 mM Tris, 150 mM NaCl, 1 mM EDTA, pH 7.4). For direct titration of NiCl₂ into the VHH-metal variant, concentrations were 2 mM and 200 μM for NiCl2 and VHH, respectively. Based on the observed binding constant, this corresponds to a “c-value” of 6.7, which is within the commonly acceptable range for the accurate determination of binding thermodynamics. For competitive titrations, nickel was included in TBS without EDTA at concentrations ranging from 0-10 mM. Competitive VHH/RNase A titration experiments with a “c” value greater than 10 included protein concentrations ranging from 30 μM to 205 μM. Conditions included a 10-fold higher concentration of titrant (VHH). […] These experiments included using a 100-fold higher concentration of titrant (RNase A) relative to VHH. RNase A concentrations were between 150 μM and 800 μM. […] The binding parameters (K, ΔH°, ΔS°, and n) were determined using the single site binding model using the ITC add-in in Origin version 7 (MicroCal LLC). […]

[11] = target: T1, bovine pancreatic RNase A; assay: ITC, 25 C, no metal; reference is the wild-type anti-RNase A VHH
Protocol: as §2
(§4) ITC experiments were performed using a MicroCal VP-ITC (MicroCal, LLC, Northampton, Mass.). All experiments were performed at 25° C. Proteins were dialyzed against the desired experimental buffer, which included PBS (20 mM NaPhosphate, 150 mM NaCl pH 7.4), TBS (20 mM Tris-HCl, 150 mM NaCl pH 7.4) and TBS-E (20 mM Tris, 150 mM NaCl, 1 mM EDTA, pH 7.4). For direct titration of NiCl₂ into the VHHmetal variant, concentrations were 2 mM and 200 μM for NiCl₂ and VHH, respectively. Based on the observed binding constant, this corresponds to a “cvalue” of 6.7, which is within the commonly acceptable range for the accurate determination of binding thermodynamics (Tellinghuisen, 2008; Wiseman et al. 1989). For competitive titrations, nickel was included in TBS without EDTA at concentrations ranging from 0-10 mM. […] Extinction coefficients were determined using values determined by the methods described by Pace, et. al. (1995). […] The binding parameters (K, ΔH°, ΔS°, and n) were determined using the single site binding model using the ITC add-in in Origin version 7 (MicroCal LLC).

[12] = target: T1, bovine pancreatic RNase A; assay: ITC, 25 C, pH 7.4; no nickel; ITC at 25° C., no nickel
Protocol: as §2, §4

[13] = target: T1, bovine pancreatic RNase A; assay: ITC, 25 C; RNase A binding with 100 µM nickel (competitive)
Protocol: as §2, §3

B1: wild-type anti-RNase A VHH (cAb-RN05) (VHH)
VHH: QVQLVESGGGLVQAGGSLRLSCAASGYAYTYIYMGWFRQAPGKEREGVAAMDSGGGGTLYADSVKGRFTISRDKGKNTVYLQMDSLKPEDTATYYCAAGGYELRDRTYGQWGQGTQVTVSS
notes: Camelid single-domain antibody; also called VHH-wt; wt-VHH
- IC50 (read off the curve) [1]: ~0.7 nM
- IC50 (read off the curve) [2]: ~1 nM
- -TΔS° [3]: 1.9 kcal/mol
- Kd [3]: 19 nM
- N [3]: 1.01
- ΔG° [3]: -10.5 kcal/mol
- ΔH° [3]: -12.4 kcal/mol
- -TΔS° [4]: 0.9 kcal/mol
- Kd [4]: 16 nM
- N [4]: 0.994
- ΔG° [4]: -10.6 kcal/mol
- ΔH° [4]: -10.7 kcal/mol

B2: VHH-metal (metal sensitive anti-RNase A VHH) (VHH)
VHH: B1 VHH with A28P, Y29H, T30P, I32L, Y33H, E102Q, Q110H
notes: also called Metal-VHH
- -TΔS° [5]: 8 kcal/mol
- Kd [5]: 160 nM
- N [5]: 0.959
- ΔG° [5]: -9.27 kcal/mol
- ΔH° [5]: -17.2 kcal/mol
- IC50 (read off the curve) [1]: ~0.6 nM
- -TΔS° [6]: 9 kcal/mol
- N [6]: 0.96
- ΔG° [6]: -9.3 kcal/mol
- ΔH° [6]: -17.8 kcal/mol
- -TΔS° [7]: 1.3 kcal/mol
- Kd [7]: 34000 nM
- N [7]: 1
- ΔG° [7]: -6.07 kcal/mol
- ΔH° [7]: -7.3 kcal/mol
- -TΔS° [8]: 3.6 kcal/mol
- Kd [8]: 219 nM
- N [8]: 0.98
- ΔG° [8]: -9.1 kcal/mol
- ΔH° [8]: -12.7 kcal/mol
- fold change in IC50 with and without 1 mM metals [9]: 1000 fold
- Kd [10]: 155 nM
- -TΔS° [4]: 0.09 kcal/mol
- Kd [4]: 5640 nM
- N [4]: 1
- ΔG° [4]: -7.13 kcal/mol
- ΔH° [4]: -7.2 kcal/mol
- fold decrease in binding affinity against the wild-type VHH [11]: ~8 fold
- ΔΔG° against the wild-type VHH [11]: 1.2 kcal/mol
- Kd [12]: 157 nM
- -TΔS° [13]: -1 kcal/mol
- Kd [13]: 900 nM
- N [13]: 0.98
- ΔG° [13]: -8.27 kcal/mol
- ΔH° [13]: -7 kcal/mol
